Biological target: neuropeptide Y4 receptor
Experiment: competition vs [125I]-hPP, Y4-transfected CHO-K1 membranes

neuropeptide Y4 receptor, sequence (P50391 whole entry): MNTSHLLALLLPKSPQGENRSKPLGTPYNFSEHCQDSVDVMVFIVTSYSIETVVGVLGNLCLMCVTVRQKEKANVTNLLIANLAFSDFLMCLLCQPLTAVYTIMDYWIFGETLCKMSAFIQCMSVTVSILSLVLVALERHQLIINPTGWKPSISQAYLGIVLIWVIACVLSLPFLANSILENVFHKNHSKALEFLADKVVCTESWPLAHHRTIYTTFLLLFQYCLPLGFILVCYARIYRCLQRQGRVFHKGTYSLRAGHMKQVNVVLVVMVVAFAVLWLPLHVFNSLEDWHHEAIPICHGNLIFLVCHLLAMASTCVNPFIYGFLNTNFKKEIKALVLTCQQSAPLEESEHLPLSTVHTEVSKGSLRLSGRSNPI

Y4 RBA [nM] | Substance
39 | NPY (human neuropeptide Y) (peptide; modification not given)
4.5 | PYY (human peptide YY) (peptide; modification not given)
54 | PYY(3-36) (peptide; modification not given)

Source: US20100099619A1
